Test results as given in US20240209100A1.
Read-outs that look alike come from different tables or passages of the source.

Experiments:
Assay in all cases: cell-based or functional assay
[1] = biological target: T1, IL-18 receptor (IL-18Rα/IL-18Rβ) overexpressed on HEK-Blue IL-18 cells (Homo sapiens (Human)) (UniProt Q13478)
T1 sequence 1: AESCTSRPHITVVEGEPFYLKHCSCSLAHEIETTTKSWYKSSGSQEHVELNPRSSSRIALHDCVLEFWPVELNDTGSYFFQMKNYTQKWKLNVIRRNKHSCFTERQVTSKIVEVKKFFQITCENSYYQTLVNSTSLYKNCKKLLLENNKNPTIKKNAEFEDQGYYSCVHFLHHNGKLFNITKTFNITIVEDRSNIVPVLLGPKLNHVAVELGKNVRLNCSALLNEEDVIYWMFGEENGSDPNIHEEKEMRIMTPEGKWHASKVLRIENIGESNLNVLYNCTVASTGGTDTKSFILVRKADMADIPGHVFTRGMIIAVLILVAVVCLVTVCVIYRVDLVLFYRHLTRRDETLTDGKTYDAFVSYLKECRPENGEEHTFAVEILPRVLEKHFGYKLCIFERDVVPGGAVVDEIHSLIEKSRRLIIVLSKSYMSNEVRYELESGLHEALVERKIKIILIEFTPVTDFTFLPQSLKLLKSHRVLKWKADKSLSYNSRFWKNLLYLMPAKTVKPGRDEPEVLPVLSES
T1 sequence 2: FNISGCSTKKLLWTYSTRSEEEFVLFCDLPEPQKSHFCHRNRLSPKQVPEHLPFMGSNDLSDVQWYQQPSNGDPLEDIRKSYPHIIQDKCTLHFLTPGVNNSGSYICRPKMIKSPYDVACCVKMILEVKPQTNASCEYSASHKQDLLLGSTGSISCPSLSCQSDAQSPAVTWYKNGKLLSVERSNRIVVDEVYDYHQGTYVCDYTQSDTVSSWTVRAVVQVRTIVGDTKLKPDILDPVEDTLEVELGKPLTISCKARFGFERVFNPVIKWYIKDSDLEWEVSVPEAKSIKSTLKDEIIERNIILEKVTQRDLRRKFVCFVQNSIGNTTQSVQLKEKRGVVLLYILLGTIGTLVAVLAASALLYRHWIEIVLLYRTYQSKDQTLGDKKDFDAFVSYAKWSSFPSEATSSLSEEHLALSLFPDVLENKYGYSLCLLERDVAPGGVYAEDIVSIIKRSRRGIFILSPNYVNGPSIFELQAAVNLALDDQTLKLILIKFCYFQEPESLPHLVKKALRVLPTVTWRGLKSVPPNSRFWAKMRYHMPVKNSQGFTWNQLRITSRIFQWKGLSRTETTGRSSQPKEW

[2] = biological target: T1, IL-18 receptor (IL-18Rα/IL-18Rβ) overexpressed on HEK-Blue IL-18 cells (Homo sapiens (Human)); remark: listed apart in the source
[3] = biological target: T1, IL-18 receptor (IL-18Rα/IL-18Rβ) overexpressed on HEK-Blue IL-18 cells (Homo sapiens (Human)); remark: listed apart in the source
[4] = biological target: T1, IL-18 receptor (IL-18Rα/IL-18Rβ) overexpressed on HEK-Blue IL-18 cells (Homo sapiens (Human)); remark: listed apart in the source
[5] = biological target: T2, IL-18 receptor (IL-18Rα/IL-18Rβ) on human PBMCs (human) (UniProt Q13478)
T2 sequence 1: T1 sequence 1
T2 sequence 2: T1 sequence 2

[6] = biological target: T1, IL-18 receptor (IL-18Rα/IL-18Rβ) overexpressed on HEK-Blue IL-18 cells (Homo sapiens (Human)); remark: listed apart in the source

Human IL-18, sequence (Q14116 37-193 limits assumed): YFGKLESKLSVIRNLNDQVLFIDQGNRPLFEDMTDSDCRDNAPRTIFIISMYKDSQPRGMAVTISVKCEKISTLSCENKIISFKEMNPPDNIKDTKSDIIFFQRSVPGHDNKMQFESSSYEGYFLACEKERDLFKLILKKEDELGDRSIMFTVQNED

HEK-Blue IL-18: Abs405 [1]: 3.1 Abs
HEK-Blue IL-18: Fold over background [1]: 13.6 fold
HEK-Blue IL-18: Abs 405 at 100 nM [2]: 2.6 Abs
HEK-Blue IL-18: Fold over background [2]: 14.4 fold
HEK-Blue IL-18: Abs405 [3]: 3.08 Abs
HEK-Blue IL-18: Fold over background [3]: 26 fold
HEK-Blue IL-18: Abs 405 at 100 nM [4]: 3 Abs
HEK-Blue IL-18: Fold over background [4]: 13.2 fold
PBMC IFNγ induction (24 h, with IL-12): EC50, Average [5]: 6.8
PBMC IFNγ induction (24 h, with IL-12): EC50, donor 1 [5]: 1.9
PBMC IFNγ induction (24 h, with IL-12): EC50, donor 2 [5]: 1.7
PBMC IFNγ induction (24 h, with IL-12): EC50, donor 3 [5]: 1.4
PBMC IFNγ induction (24 h, with IL-12): EC50, donor 4 [5]: 4.7
PBMC IFNγ induction (24 h, with IL-12): EC50, donor 5 [5]: 1.9
PBMC IFNγ induction (24 h, with IL-12): EC50, donor 6 [5]: 29.4
PBMC: calculated maximum induction of IFNγ after 24 hours, donor 1 [5]: 42000
PBMC: calculated maximum induction of IFNγ after 24 hours, donor 2 [5]: 5300
PBMC: calculated maximum induction of IFNγ after 24 hours, donor 3 [5]: 89000
PBMC: calculated maximum induction of IFNγ after 24 hours, donor 4 [5]: 69000
PBMC: calculated maximum induction of IFNγ after 24 hours, donor 5 [5]: 150000
PBMC: calculated maximum induction of IFNγ after 24 hours, donor 6 [5]: 28000
HEK-Blue IL-18: Abs 405 (Ave of 2) [6]: 2.6 Abs
HEK-Blue IL-18: Abs405 (Emax), Average (hu IL-18) [6]: 2.72 Abs
HEK-Blue IL-18: EC50 (M), Average (hu IL-18) [6]: 7.14e-14 M
HEK-Blue IL-18: Emax (Abs at 630 nm), Human IL-18 (1 ng/ml) (Abs at 630 nm) [6]: 3.25
HEK-Blue IL-18: Fold over background [6]: 22 fold
Substance: Human IL-18 (from UniProt Q14116 37-193) (ligand)
